Measurements taken from US20090227507A1, “Angiotensin (1-7) Dosage Forms and Uses Thereof” (UNIVERSITY OF SOUTHERN CALIFORNIA, priority 2008, published 2009).

Tests used:
[1] = Renal laboratory values (serum creatinine, creatinine clearance, 24-hour urine) in healthy men; settings: human, in vivo
Experimental: USB003 was administered SC in the abdomen by a qualified study staff member 24 hours after the previous (Day 6) injection.
Blood, urobilinogen, ketones, glucose, protein, microscopic examination of sediment, sodium, and potassium.

[2] = Vital signs (blood pressure, pulse rate, respiration rate, oral temperature) in healthy men; type: in vivo, human; settings: for oral body temperature, Subject 042 / oral body temperature, Subject 046 / oral body temperature, Subject 053 / oral body temperature, Subject 055: 300 μg/kg
Experimental: Safety assessments during the study period included vital sign measurement (systolic [SBP] and diastolic [DBP] blood pressure, heart rate [HR], respiratory rate [RR] in the sitting position, and oral temperature), clinical chemistry, hematology, urinalysis, 12-lead electrocardiogram (ECG) in the supine position, and AE monitoring. Clinical chemistry/hematology samples were drawn within a 30-minute period prior to dosing on selected dosing days.
Vital signs were measured immediately prior to dosing, every hour for the first 6 hours post-dosing, then every 3 hours up to 12 hours post-dosing.
Vital signs, including SBP, DBP, RR, and HR were done at Screening, on each day immediately before and at 1, 3, and 6 hours after each SC injection, and at 24 hours after the last injection on Day 7. On Day 1, they were taken every hour for the first 6 hours, then every 3 hours up to 12 hours after the dose.

lymphocyte numbers = assay: Lymphocyte recovery after subcutaneous TXA127 in subjects without HIV infection (breast cancer subjects receiving chemotherapy); type: in vivo; settings: human subjects without HIV infection (e.g., breast cancer subjects receiving cancer chemotherapy)
Source text: In the absence of effective antiretroviral therapy, HIV disease is characterized by the relentless destruction of CD4+ T-lymphocytes resulting in disordered and declining immune function.

[3] = approximately 6 hours after Day 3 study medication

Asp-Arg-Val-Tyr-Ile-His-Pro [USB003]
Creatinine Clearance shift L-N, number of subjects ([1]; 200 ug/kg): 3 | creatinine clearance ([1]; 200 ug/kg): increase | subjects with creatinine clearance shifted from low to normal ([1]; 200 ug/kg): 3 of the 9 | Creatinine Clearance shift L-N, number of subjects ([1]; 300 ug/kg): 2 | Creatinine Clearance shift N-L, number of subjects ([1]; 300 ug/kg): 1 | increase in creatinine clearance ([1]; 300 ug/kg): not observed | subjects with creatinine clearance shifted from low to normal ([1]; 300 ug/kg): 2 of the 8 | change from baseline in mean body temperatures ([2]; 300 μg/kg dose group compared to 200 μg/kg, especially 6-hour post-dose, Study Day 3): clearly notable increase | oral body temperature, Subject 042 ([2]; Day 1, 4-hour post-dose): 37.8 °C | oral body temperature, Subject 042 ([2]; Day 1, 9-hour post-dose): 38.1 °C | oral body temperature, Subject 042 ([2]; Day 1, one hour after first dose): 37.4 °C | oral body temperature, Subject 042 ([2]; Day 2, 6-hour-post-dose): 38.7 °C | oral body temperature, Subject 042 ([2]; Day 2 pre-dose): 37.4 °C | oral body temperature, Subject 046 ([2]; Day 2 pre-dose): 35.9 °C | oral body temperature, Subject 046 ([2]; Day 3, 6-hour post-dose): 37.9 °C | oral body temperature, Subject 046 ([2]; Day 4 pre-dose): 36.8 °C | oral body temperature, Subject 053 ([2]; Day 4 pre-dose): 36.4 °C | oral body temperature, Subject 055 ([2]; Day 4 pre-dose): 37.1 °C | oral body temperature, Subject 053 ([2]; Day 7 pre-dose): 37.0 °C | oral body temperature, Subject 042 ([2]; Day 8): 36.9 °C | oral body temperature, Subject 053 [2, 3]: 37.8 °C | oral body temperature, Subject 055 [2, 3]: 38.0 °C | oral body temperature, Subject 053 ([2]; approximately 6 hours after Day 6 study medication): 37.9 °C | oral body temperature, Subject 046 ([2]; approximately 7 hours and 45 minutes after first dosing): 37.8 °C | oral body temperature, Subject 046 ([2]; approximately 14 hours after the first dose): 38.0 °C | oral body temperature, Subject 046 ([2]; one hour after first dose): 37.3 °C | changes from baseline for the mean RR ([2]; all measured time points): no clinically meaningful changes | mean change in pulse rate ([2]; by 3-hour post-dose in all treatment groups, continuing in the USB003 groups at last vital sign of the day): mildly notable increase | change in mean SBP and DBP compared to baseline ([2]; no apparent difference in dose groups): mild decrease | lymphocyte numbers following subcutaneous injection (lymphocyte numbers): dramatic recovery of lymphocyte numbers
